From the supplement of paper PMC9170038

Test system: K4 kissing-loop RNA reporter
Experiment: apparent KD of K4 kissing-loop reporter; higher = weaker reporter binding
Conditions: Eterna round: R107
Experimental: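 RNA-MaP round R107: designed RNA switches with theophylline, tryptophan, arginine or FMN aptamers are transcribed on-chip within common flanks. They are titrated with a labelled K4 kissing-loop RNA reporter in RNA-MaP buffer (100 mM Tris pH 7.5, 80 mM KCl, 4 mM MgCl2), without ligand or with the indicated ligand. Median apparent KD per design.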

[1] = input ligand: theophylline 20 uM
[2] = input ligand: tryptophan 2.4 mM
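Note: bound reporter read as fluorescence of individual clusters on recovered sequencing chips by microscopy, with normalized cluster intensities fitted with a binding model.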

Sequence | apparent KD of K4 kissing-loop reporter (input ligand: FMN 200 uM) [nM] | apparent KD of K4 kissing-loop reporter (input ligand: arginine 13.2 mM) [nM] | apparent KD of K4 kissing-loop reporter (input ligand: none) [nM] | apparent KD of K4 kissing-loop reporter [1] [nM] | apparent KD of K4 kissing-loop reporter [2] [nM]
AAGGGCUAGGCGGCCGCCACUGGUCGUGAACACAUACGAGCCAGUGAUGUUGGUAUUGUGUGCGGCAGGACCGGGCCUAGCCGAA [Exclusion - Tryptophan B (Freestyle 24)] | 343 | 338 | 391 | 409 | 462
AAGUAGCUCUCGGCCGCCACUCCUCAGUGAUGUUGAGAUAUUAAGAGCCAAUUGGCUCAUAUAAAGAGGACCGGGAGAGCUACAA [AK4 SS Tryptophan B] | 248 | 276 | 357 | 282 | 128
AAGUCAUAUAGAAGGAGCGUGUUUUUUAAUUUGUUUUCAUGAUCGAGUGAUGUUCGAUAUACACAGGUAGGUCGCUGUAUGAUAA [hbob_SS_Arginine_B_2t143] | 128 | 146 | 130 | 177 | 114
AAGUGAUGUUGUAGUGAUGUUGUGAUGUUGCAGGAUAUAUAGUGAUGUAGAAGGGUAUGUGCAGUUUUCAUAUUUGAGUGUUGAU [mkkhmullin] | 85.2 | 37.6 | 67.1 | 56.5 | 64.2
AAUAAGGAGUGAUGUUCCAAGUGAUGUUAACGAGGACCGGUACGGCCGCCACUCGAUACGGCCGGAAAGUAAGAUAAACUAAAAU [Same State - Tryptophan A (Freestyle 2)] | 61 | 42.8 | 52.3 | 45.5 | 47.2
AAUACAGUACAACCGAGUGGAACACAAAUACGAGGACCGGUACGGCCGCCACUCGUGCAGAAUUUCAGUGAUGUUGAAAUACUGC [Exclusion Tryptophan A GF 6] | 165 | 125 | 122 | 162 | 149
AAUAUCUAGUAUAUAUUUUAUAAAACAGAUACCAGUGAUUAUAUACACCCUUGGCAGCUGGACGAGUGAUGUUCGUAUAUAUUAA [JR_SSTheophyA_Sub008] | 118 | 188 | 147 | 244 | 89
AAUGUACAGGGAAGGAGCGUAGUCCAGUGAUGUUGGAAUUAAAUUCCUGCGAUGUUGGUUAUACAGGUAGGUCGCCCUAAAGUGC [KL-XARG-B22] | 367 | 351 | 436 | 497 | 344
AAUUCAGCUAGUGAUGUUAGCGUAGAGUGCAAGGAUAUCCCUGUCAGGAGAAGGUGCGUAGAACGUUUGCCAUCAGAUUGUCCCA [theeternabot_exclusion_KL_FMN_A_48] | 176 | 97.2 | 118 | 104 | 109
AAUUCAGUGAUGUUGGAAGGCAAGCGGGAUACCAGCGGAGAAUAACGCCCUUGGCAGCCCAUAUAUCCCAAAUAGAUAAUAGUUC [Same State - Theophylline A (Freestyle 4)] | 345 | 220 | 279 | 327 | 337
AAUUGAGUGACGGCCGCCACUAGAGUGAUUUUUUUGUUUGAGUGAUGUUUUGAUGUUUGAUGUUGUAGGACCGGGUUGAGUGAUG [vvrvmullin] | 377 | 348 | 386 | 428 | 291
AAUUUAUAUUUGUUCUUCAAAUGUUCAGAAGGAGCGUGAAUUAUCACAGGUAGGUCGCUGGGCUAGUGAUGUUGGCUAUAUACUA [whbob_Ex_Arginine_A_2t126] | 168 | 195 | 195 | 211 | 137
AAUUUAUUAACUGAUACCAGACUUAAUAAAUUUUAAAUCACUAGUGAUGUUAGUGAAUAUGUCCCUUGGCAGCAGUAUUUAUUAA [JR_SSTheophyB_Sub023] | 132 | 134 | 125 | 121 | 115
ACACAGAGUUGCCGAGUGAUGUUCGGCUUACGAGGACCGGUACGGCCGCCACUCGUUACUCUGUGUUUUGGACACCAAGGCGUCG [Tionzaanon] | 651 | 449 | 543 | 505 | 201
ACACUUUACGUAGGAUAUGCGACGAGUGAUGUUCGUCAGGCGGCCUUAGAUUAAACAAGCCGCCUAGCAGAAGGACGGGCAGUGU [Qumatiri] | 133 | 155 | 201 | 154 | 159
ACCUACCAUUAGUGAUGUUAAUGGACGGAAGGAGCGCAGAUAUCUGCAGGUAGGUCGCCGAAGGCUAGACAUUGUCUAGCCAUUU [AK1.3 SS Arginine A] | 192 | 161 | 217 | 155 | 180
ACCUACGAUCACGAAAGUGAUUGUAGGAUCUAGGAUAUGCUGAAGAGCAGAAGGAGAGUGAUGUUCUCAUCUCACGAAAGUGAGA [whbob_Ex_FMNA__2th190] | 437 | 206 | 217 | 245 | 221
